Source: paper PMC7288244

Experiments:
[1] = molecular target: Human Recombinant FcγR receptor IIA/CD32a (human) (UniProt P12318); experiment: ELISA
the FcγR = experiment: fluorescence correlation spectroscopy

Sequence of UniProt P12318 (P12318 34-217): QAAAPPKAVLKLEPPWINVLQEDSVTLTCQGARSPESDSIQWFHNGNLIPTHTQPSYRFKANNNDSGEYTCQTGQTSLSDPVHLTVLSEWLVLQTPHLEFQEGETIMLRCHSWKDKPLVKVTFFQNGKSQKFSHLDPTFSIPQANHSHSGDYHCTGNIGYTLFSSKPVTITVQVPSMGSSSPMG

Row | Substance | EC50 [1] | stoichiometry N (the FcγR)
1 | immune complex of C11-LALA with FLSC | 0.6 nM | 
2 | immune complex of N5-i5-LALA with FLSC | 6 nM | 
3 | human IgG1 mAb C11-LALA (antibody) |  | 1
4 | human IgG1 mAb N5-i5-LALA (antibody) |  | 1
